From the supplement of paper PMC10126150
± gives the standard deviation of the averaged measurements.

Tested on: ATP
Experiment: switch fluorescence ratio, 500 uM ATP over buffer (Cy3 cluster intensity, sum of 5 cycles each) (fold (ratio)); higher = stronger signal-on switching upon ATP binding; sequences stand for … in TCGTCGGCAGCGTCAGATGTGTATAAGAGACAGTTTTTTTTTTTTTTTTTTTTTTTTT…TC
Settings: aptamer strand: ATP DNA aptamer (quencher-CACCTGGGGGAGTATTGCGGAGGAAGG + anchor), 100 nM annealed; ATP concentration: 500 uM
Method in brief: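 Exposure to 500 uM ATP lasted 15 min at 22 °C before imaging, and a selection-buffer image was taken beforehand, for Cy3-labelled switching-strand clusters on a modified Illumina MiSeq flow-cell annealed to 100 nM quencher-labelled ATP aptamer. Five buffer/ATP cycles were run with NaOH stripping and re-annealing between them. The fluorescence ratio per cluster is summed target-cycle over summed buffer-cycle Cy3 intensity, averaged per switch-domain sequence. Clusters outside 100-1000 RFU were excluded.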

| Sequence | switch fluorescence ratio |
| --- | --- |
| TCGGACGGGT | 1.02 ± 0.025 |
| CGTCTGATTG | 1.01 ± 0.025 |
| TTTGTTCGTT | 1.01 ± 0.029 |
| CGAGGTGTGT | 1.009 ± 0.0022 |
| AGTGGCCGGG | 1.01 ± 0.027 |
| ATGGGGGGTG | 1 ± 0.035 |
| ATTATATAGC | 0.996 ± 0.031 |
| GAAGTGCGGA | 0.9795 ± 0.0061 |
| AATTTGTGTG | 0.99 ± 0.034 |
| CCTCATTGAC | 2.24 ± 0.15 |
| ATGCGGCTG | 1.04 ± 0.11 |
| GAGGGATATT | 1.02 ± 0.022 |
| TGAACTTTTA | 0.965 ± 0.061 |
| TAATCCTAGT | 0.997 ± 0.036 |
| CAGAAGGGTG | 1.02 ± 0.011 |
| GCTGCCGGGG | 0.971 ± 0.046 |
| ATGATTCTGT | 1 ± 0.021 |
| TATGAATTGT | 1.014 ± 0.01 |
| ATTCCTGGGA | 1.03 ± 0.018 |
| GTTGGTCCTT | 0.9928 ± 0.003 |
| GAGTCTGAAA | 1.141 ± 0.006 |
| GTTGGGTTCC | 1.02 ± 0.02 |
| GGCTGGATTT | 0.98525 ± 0.00086 |
| TTTCTTAATT | 1.4 ± 0.59 |
| TCGGAGTTTG | 0.9963 ± 0.0024 |
| GGTATTAGCT | 1.01 ± 0.013 |

| Sequence | switch fluorescence ratio |
| --- | --- |
| GCGAGGGTTC | 0.991 ± 0.029 |
| AGGCTTTCAG | 0.9828 ± 0.0011 |
| AGTGCGAAGG | 0.97211 ± 0.00025 |
| GTTTACAAGT | 0.992 ± 0.027 |
| TTTCTTGGGT | 1.04 ± 0.17 |
| CTAGATGTAT | 0.985 ± 0.017 |
| CGTGTCGACA | 0.9631 ± 0.0068 |
| GGTGTGGTGG | 1.01 ± 0.027 |
| AAACACGAGC | 1.067 ± 0.0061 |
| ACTGCTAATT | 1.08 ± 0.039 |
| TTAGTTTTTA | 0.991 ± 0.022 |
| TAGGAGAGTT | 0.994 ± 0.036 |
| AGTTGCATGC | 0.9677 ± 0.0093 |
| TTCGCGGTTA | 1 ± 0.03 |
| AGCGGGGTTT | 0.987 ± 0.011 |
| GACTGGGGG | 1.0292 ± 0.00087 |
| GGAGGCGGAG | 1.002 ± 0.0077 |
| AAGTGTGGTA | 0.991 ± 0.018 |
| TCGCTTACAT | 1.0488 ± 0.00048 |
| GTGGGATTGC | 0.9959 ± 0.0067 |
| CAAATAAGTG | 0.9842 ± 0.0088 |
| CCTGCCAAGA | 2 ± 1.4 |
| CGATTGTTGA | 1.01 ± 0.037 |
| CGGGCGGGGT | 1.03 ± 0.051 |
| CAGTTTCGGG | 1.004 ± 0.01 |
| AAGGATCTAC | 1.01 ± 0.027 |

| Sequence | switch fluorescence ratio |
| --- | --- |
| TTGAAGCGTT | 0.996 ± 0.018 |
| AGGCAGATAG | 1.04 ± 0.025 |
| ATCGTTGCGT | 1.02 ± 0.031 |
| GAGAAGGGTG | 1.01 ± 0.071 |
| CGCCTCGTAA | 1.191 ± 0.01 |
| AAGGTAACAA | 1.01 ± 0.051 |
| TCACCGATTC | 1.11 ± 0.024 |
| GTTCGGAATT | 1.031 ± 0.0013 |
| CAGGTTGAAG | 0.9631 ± 0.0069 |
| TTTCAATTGT | 1.02 ± 0.047 |
| AAGCTATCGG | 0.994 ± 0.016 |
| TTACTTATTA | 1.07 ± 0.018 |
| AGTAAATTCT | 0.9887 ± 0.0015 |
| TATTGTTAGG | 1.01 ± 0.027 |
| GGATTGGTTT | 0.983 ± 0.03 |
| TGATTTATTG | 0.985 ± 0.03 |
| ATCGGCGCGC | 0.9957 ± 0.0026 |
| TAAGGGGGTT | 1.01 ± 0.036 |
| AAAGGTTTTC | 0.9804 ± 0.0084 |
| GGTATAGCAC | 1.07 ± 0.016 |
| CGCCCCTTGC | 1.17 ± 0.031 |
| GAAAGGGTAC | 1.56 ± 0.65 |
| ATGTGGTGTC | 1.02 ± 0.015 |
| GGGGGACCGT | 1.01 ± 0.024 |
| TTTAGATTTA | 1.04 ± 0.042 |
| TGCTTTTTAG | 0.988 ± 0.029 |

| Sequence | switch fluorescence ratio |
| --- | --- |
| CATTGACATA | 1.07 ± 0.034 |
| GATATCCCGG | 0.987 ± 0.022 |
| TGCTAGGGGC | 1.07 ± 0.036 |
| TTGCTGTTGG | 1.03 ± 0.033 |
| ACCGCTCAGT | 1.06 ± 0.023 |
| TTACCGGGGG | 1.042 ± 0.0095 |
| CCAGTTAGCC | 1.04 ± 0.13 |
| TTTCGGCGCG | 1.02 ± 0.038 |
| TGGGTAGTAA | 0.993 ± 0.016 |
| ACTTATCCTT | 1.0512 ± 0.00011 |
| TAAGTCCTTT | 0.9828 ± 0.0041 |
| GTGGGGCGCC | 1.01 ± 0.03 |
| TAATTATCCG | 1.05 ± 0.044 |
| AAAGCTGCGT | 0.9843 ± 0.0049 |
| CTAAATGAGC | 0.979 ± 0.02 |
| TTTATCAACG | 1.046 ± 0.0027 |
| TTCACGGTTC | 1.02 ± 0.027 |
| ATTGTCTATA | 0.981 ± 0.011 |
| CCAGACGGGG | 0.986 ± 0.029 |
| AGGAGGGGA | 1.03 ± 0.02 |
| GGCGGAGGGA | 0.99 ± 0.011 |
| GAGCCACGGG | 1.04 ± 0.015 |
| TGGGAAATAG | 0.9957 ± 0.0041 |
| AAGCCGATTC | 1.03 ± 0.0068 |
| TTATTGCCTT | 1.03 ± 0.025 |
| AAAGGTTTGC | 1 ± 0.039 |

| Sequence | switch fluorescence ratio |
| --- | --- |
| TTCTATCCTA | 1.02 ± 0.012 |
| CTTGGTCCTG | 0.9669 ± 0.007 |
| ATTAGTGTTC | 0.987 ± 0.043 |
| GCATTGACGG | 1.03 ± 0.02 |
| AGGACTTTAA | 1.0405 ± 0.0001 |
| TCTTTTGCTT | 1.01 ± 0.032 |
| ATTGGGGACT | 1.01 ± 0.019 |
| AGGACCGGGG | 1.024 ± 0.0095 |
| TGGCTGGTGT | 1.02 ± 0.08 |
| CACGGAAGGA | 1.065 ± 0.0079 |
| AACTATAAGA | 1.06 ± 0.1 |
| AAGAGTTCTG | 1 ± 0.011 |
| CAATTTCTGG | 0.973 ± 0.015 |
| GGGTAGTTTT | 0.989 ± 0.018 |
| AATGTGAGGG | 0.9772 ± 0.0092 |
| CGGATTTATA | 0.979 ± 0.019 |
| AGCTGATTC | 1.031 ± 0.0099 |
| TTCTCGTCAA | 5.06 ± 0.96 |
| TTCAGTATTT | 1.08 ± 0.09 |
| GCTCAATTTA | 0.9689 ± 0.0083 |
| TTCGGCGGTA | 0.995 ± 0.011 |
| TTTAAGCATT | 1.19 ± 0.066 |
| GGCTCAGCGG | 1.03 ± 0.07 |
| AACGGTCAAA | 1.02 ± 0.028 |
| TCTTAATTG | 0.98356 ± 0.00079 |
| TCATGTTCGT | 1.08 ± 0.15 |

| Sequence | switch fluorescence ratio |
| --- | --- |
| TAGGTGGGGA | 1.01 ± 0.023 |
| AAGAGGTCG | 1.02 ± 0.046 |
| CGGGTACGTG | 1.02 ± 0.018 |
| TGGGGGTT | 0.997 ± 0.032 |
| GGAGTAAATG | 1.01 ± 0.015 |
| GATCTGGTAC | 1.06 ± 0.037 |
| GCTGCTTAGG | 0.974 ± 0.018 |
| AGGATCGGTC | 1.02 ± 0.021 |
| AGGGGAGATG | 0.991 ± 0.048 |
| ACGTAATAGC | 2.07 ± 0.13 |
| CAGAGGAGTT | 1.01 ± 0.051 |
| TCAATAATGA | 1.02 ± 0.027 |
| TTTTATTTTA | 0.991 ± 0.039 |
| AAAGGGGCTA | 0.988 ± 0.02 |
| AGTGGGGCAG | 0.986 ± 0.0071 |
| ACCCACGGAG | 1.17 ± 0.014 |
| GGCTAAAATT | 0.999 ± 0.042 |
| TTCGAGTTTG | 0.9843 ± 0.0032 |
| TTAGCGGGTT | 0.988 ± 0.048 |
| TAGGTGCTGG | 1.04 ± 0.07 |
| ATGTTGGTCG | 0.974 ± 0.028 |
| TTTGGAAGGA | 0.998 ± 0.04 |
| GCGGGAGGCT | 0.977 ± 0.028 |
